B1: LY-CoV555 (sdFab) (Fab, V domains shown)
VH: QVQLVQSGAEVKKPGSSVKVSCKASGGTFSNYAISWVRQAPGQGLEWMGRIIPILGIANYAQKFQGRVTITADKSTSTAYMELSSLRSEDTAVYYCARGYYEARHYYYYYAMDVWGQGTAVTVSS
VL: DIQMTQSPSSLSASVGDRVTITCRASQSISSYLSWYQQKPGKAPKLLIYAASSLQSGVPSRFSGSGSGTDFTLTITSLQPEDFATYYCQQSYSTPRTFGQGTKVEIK
B2: CB6 (sdFab) (Fab, V domains shown)
VH: EVQLVESGGGLVQPGGSLRLSCAASGFTVSSNYMSWVRQAPGKGLEWVSVIYSGGSTFYADSVKGRFTISRDNSMNTLFLQMNSLRAEDTAVYYCARVLPMYGDYLDYWGQGTLVTVSS
VL: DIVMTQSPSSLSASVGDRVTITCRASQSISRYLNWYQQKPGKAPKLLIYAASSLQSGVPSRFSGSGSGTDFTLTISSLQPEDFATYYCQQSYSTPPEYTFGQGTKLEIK
B3: REGN10933 (sdFab) (Fab, V domains shown)
VH: QVQLVESGGGLVKPGGSLRLSCAASGFTFSDYYMSWIRQAPGKGLEWVSYITYSGSTIYYADSVKGRFTISRDNAKSSLYLQMNSLRAEDTAVYYCARDRGTTMVPFDYWGQGTLVTVSS
VL: DIQMTQSPSSLSASVGDRVTITCQASQDITNYLNWYQQKPGKAPKLLIYAASNLETGVPSRFSGSGSGTDFTFTISGLQPEDIATYYCQQYDNLPLTFGGGTKVEIK
B4: REGN10987 (sdFab) (Fab, V domains shown)
VH: QVQLVESGGGVVQPGRSLRLSCAASGFTFSNYAMYWVRQAPGKGLEWVAVISYDGSNKYYADSVKGRFTISRDNSKNTLYLQMNSLRTEDTAVYYCASGSDYGDYLLVYWGQGTLVTVSS
VL: QSALTQPASVSGSPGQSITISCTGTSSDVGGYNYVSWYQQHPGKAPKLMIYDVSKRPSGVSNRFSGSKSGNTASLTISGLQSEDEADYYCNSLTSISTWVFGGGTKLTVL
B5: AZD8895 (sdFab) (Fab, V domains shown)
VH: EVQLVQSGPEVKKPGTSVKVSCKASGFTFMSSAVQWVRQARGQRLEWIGWIVIGSGNTNYAQKFQERVTITRDMSTSTAYMELSSLRSEDTAVYYCAAPYCSSISCNDGFDIWGQGTMVTVSS
VL: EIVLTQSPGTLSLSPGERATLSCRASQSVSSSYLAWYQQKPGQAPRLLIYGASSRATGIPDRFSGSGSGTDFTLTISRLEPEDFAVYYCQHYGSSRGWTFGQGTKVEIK
B6: LY-CoV1404 (sdFab) (Fab, V domains shown)
VH: QITLKESGPTLVKPTQTLTLTCTFSGFSLSISGVGVGWLRQPPGKALEWLALIYWDDDKRYSPSLKSRLTISKDTSKNQVVLKMTNIDPVDTATYYCAHHSISTIFDHWGQGTLVTVSS
VL: QSALTQPASVSGSPGQSITISCTATSSDVGDYNYVSWYQQHPGKAPKLMIFEVSDRPSGISNRFSGSKSGNTASLTISGLQAEDEADYYCSSYTTSSAVFGGGTKLTVL

Biological target: SARS-CoV-2 hexaproline stabilized pre-fusion spike glycoprotein (S6P) (SARS-CoV-2, ancestral (Wuhan-Hu-1 …, UniProt P0DTC2, stabilised))
Test: AlphaScreen or HTRF
Details: one partner purified

**Q.** Does B1 bind?
**A.** binds

**Q.** Does B2 bind?
**A.** binds

**Q.** Does B3 bind?
**A.** binds

**Q.** Does B4 bind?
**A.** binds

**Q.** Does B5 bind?
**A.** binds

**Q.** Does B6 bind?
**A.** binds
